# Test results as given in US20140134647A1 (LA JOLLA INSTITUTE FOR ALLERGY AND IMMUNOLOGY, published 2014).
# Several values for one entry are separate records, joined by “and”; a condition that tells them apart may be missing. Equal entries are not always repeated. Where two headings read alike, the source gives them in different places.
# B1: UL141-Fc (UL141 ectodomain fused to the Fc region of human IgG1) (Fc fusion)
# chain: DIAEKMWAENYETTSPAPVLVAEGEQVTIPCTVMTHSWPMVSIRARFCRSHDGSDELILDAVKGHRLMNGLQYRLPYATWNFSQLHLGQIFSLTFNVSTDTAGMYECVLRNYSHGLIMQRFVILTQLETLSRPDEPCCTPALGRYSLGDQIWSPTPWRLRNHDCGMYRGFQRNYFYIGRADAEDCWKPACPDEEPDRCWTVIQRYRLPGDCYRSQPHPPKFLPVTPAPPADIDTGMS
# Legend:
# [1] = target: TRAIL-R2-Fc double mutant L110A/L114A (human) (UniProt O14763)
# [2] = target: TRAIL-R2-Fc mutant D148A (human) (UniProt O14763)
# [3] = target: TRAIL-R2-Fc mutant F112A (human) (UniProt O14763)
# [4] = target: TRAIL-R2-Fc mutant V167A (human) (UniProt O14763)
# [5] = target: TRAIL-R2-Fc double mutant L110A/L114A (human) (UniProt O14763); assay: SPR, alanine mutant
# [6] = target: CD155-Fc (CD155/PVR ectodomain Fc fusion) (human) (UniProt P15151); assay: SPR; CD155-Fc immobilized, UL141 analyte
# [7] = target: TRAIL-R1-Fc (human TRAIL-R1/DR4 ectodomain Fc fusion) (human) (UniProt O00220); assay: SPR; TRAIL-R1-Fc immobilized, UL141 analyte
# [8] = target: TRAIL-R2-Fc (human TRAIL-R2 aa 58-184, thrombin site, Fc of human IgG1), wild type (human) (UniProt O14763); assay: SPR; TRAIL-R2-Fc immobilized, UL141 analyte
# [9] = target: CD155-Fc (CD155/PVR ectodomain Fc fusion) (human) (UniProt P15151); assay: SPR, KDave; CD155-Fc immobilized, UL141 analyte
# [10] = target: TRAIL-R2-Fc (human TRAIL-R2 aa 58-184, thrombin site, Fc of human IgG1), wild type (human) (UniProt O14763); assay: SPR, KDave; TRAIL-R2-Fc immobilized, UL141 analyte
# [11] = target: CD155-Fc (CD155/PVR ectodomain Fc fusion) (human) (UniProt P15151); assay: SPR, kinetic 1:1 fit; CD155-Fc immobilized, UL141 analyte
# [12] = target: TRAIL-R1-Fc (human TRAIL-R1/DR4 ectodomain Fc fusion) (human) (UniProt O00220); assay: SPR, kinetic 1:1 fit; TRAIL-R1-Fc immobilized, UL141 analyte
# [13] = target: TRAIL-R2-Fc (human TRAIL-R2 aa 58-184, thrombin site, Fc of human IgG1), wild type (human) (UniProt O14763); assay: SPR, kinetic 1:1 fit; TRAIL-R2-Fc immobilized, UL141 analyte
# [14] = target: TRAIL-R2-Fc (human TRAIL-R2 aa 58-184, thrombin site, Fc of human IgG1), wild type (human) (UniProt O14763); assay: SPR; TRAIL-R2-Fc captured on anti-human Fc chip, UL141 analyte
# [15] = target: TRAIL-R1-Fc (human TRAIL-R1/DR4 ectodomain Fc fusion) (human) (UniProt O00220); assay: SPR, steady-state (KDeq); TRAIL-R1-Fc immobilized, UL141 analyte
# [16] = target: TRAIL-R2-Fc double mutant E78A/D109A (human) (UniProt O14763); assay: SPR; TRAIL-R2-Fc mutant captured on anti-human Fc chip, UL141 analyte
# [17] = target: TRAIL-R2-Fc double mutant L110A/L114A (human) (UniProt O14763); assay: as above
# [18] = target: TRAIL-R2-Fc mutant D148A (human) (UniProt O14763); assay: as above
# [19] = target: TRAIL-R2-Fc mutant F112A (human) (UniProt O14763); assay: as above
# [20] = target: TRAIL-R2-Fc mutant K155A (human) (UniProt O14763); assay: as above
# [21] = target: TRAIL-R2-Fc mutant M152A (human) (UniProt O14763); assay: as above
# [22] = target: TRAIL-R2-Fc mutant P150A (human) (UniProt O14763); assay: as above
# [23] = target: TRAIL-R2-Fc mutant R154A (human) (UniProt O14763); assay: as above
# [24] = target: TRAIL-R2-Fc mutant V167A (human) (UniProt O14763); assay: as above
# [25] = target: TRAIL-R2-Fc triple mutant M152A/R154A/K155A (human) (UniProt O14763); assay: as above
# [26] = target: TRAIL-R1-Fc (human TRAIL-R1/DR4 ectodomain Fc fusion) (human) (UniProt O00220); assay: SPR, average of KDeq and KD (KDave); TRAIL-R1-Fc immobilized, UL141 analyte
# [27] = target: CD155-Fc (CD155/PVR ectodomain Fc fusion) (human) (UniProt P15151)
# [28] = target: CD155-Fc (CD155/PVR ectodomain Fc fusion) (human) (UniProt P15151); assay: SPR; CD155-Fc immobilized, pre-formed UL141-TRAIL-R2 complex analyte
# [29] = target: CD155-Fc (CD155/PVR ectodomain Fc fusion) (human) (UniProt P15151); assay: SPR, KDave; CD155-Fc immobilized, pre-formed UL141-TRAIL-R2 complex analyte
# [30] = target: T1, mouse TRAIL-R2:Fc (extracellular domain of mouse TRAIL-R2 fused to human IgG constant domain) (mouse; human, UniProt Q9QZM4 53-180; P01857 104-330 = IgG part); assay: ELISA-based assay
# T1 construct: extracellular domain;domain: human IgG VH constant domain; also called mTRAIL-R2:Fc
# [31] = target: T2, TRAIL-R2 (DR5) ectodomain monomer, aa 58-184, without Fc (human, UniProt O14763 58-184); assay: SPR; UL141-Fc immobilized, TRAIL-R2 analyte
# T2 construct: range 58-184; also called monomeric TRAIL-R2; TRAIL-R2 monomer
# [32] = target: T2, TRAIL-R2 (DR5) ectodomain monomer, aa …; assay: SPR, kinetic 1:1 fit; UL141-Fc immobilized, TRAIL-R2 analyte
# [33] = target: T2, TRAIL-R2 (DR5) ectodomain monomer, aa …; assay: SPR, steady-state (KDeq); UL141-Fc immobilized, TRAIL-R2 analyte
# [34] = target: T2, TRAIL-R2 (DR5) ectodomain monomer, aa …; assay: SPR, average of KDeq and KD (KDave); UL141-Fc immobilized, TRAIL-R2 analyte
# Chain of TRAIL-R2-Fc triple mutant M152A/R154A/K155A (human) (O14763 other isoform, or with tags, fused parts or gaps M152A R154A K155A M152A R154A K155A limits assumed): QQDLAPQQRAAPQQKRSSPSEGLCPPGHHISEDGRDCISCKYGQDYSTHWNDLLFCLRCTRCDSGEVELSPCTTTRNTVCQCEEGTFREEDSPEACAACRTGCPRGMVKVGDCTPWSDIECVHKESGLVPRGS
# Chain of TRAIL-R2-Fc mutant R154A (human) (O14763 other isoform, or with tags, fused parts or gaps R154A R154A limits assumed): as the sequence (O14763 other isoform, or with tags, fused parts or gaps M152A R154A K155A M152A R154A K155A limits assumed) above, with A95M, A98K counted along it
# Chain of TRAIL-R2-Fc (human TRAIL-R2 aa 58-184, thrombin site, Fc of human IgG1), wild type (human) (O14763 other isoform, or with tags, fused parts or gaps limits assumed): as the sequence (O14763 other isoform, or with tags, fused parts or gaps M152A R154A K155A M152A R154A K155A limits assumed) above, with A95M, A97R, A98K counted along it
# T2 sequence (O14763 58-184 limits assumed): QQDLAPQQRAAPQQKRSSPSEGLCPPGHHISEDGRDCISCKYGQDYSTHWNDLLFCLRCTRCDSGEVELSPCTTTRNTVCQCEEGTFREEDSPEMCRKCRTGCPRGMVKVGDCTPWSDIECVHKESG
# Chain of CD155-Fc (CD155/PVR ectodomain Fc fusion) (human) (P15151 21-343 limits assumed): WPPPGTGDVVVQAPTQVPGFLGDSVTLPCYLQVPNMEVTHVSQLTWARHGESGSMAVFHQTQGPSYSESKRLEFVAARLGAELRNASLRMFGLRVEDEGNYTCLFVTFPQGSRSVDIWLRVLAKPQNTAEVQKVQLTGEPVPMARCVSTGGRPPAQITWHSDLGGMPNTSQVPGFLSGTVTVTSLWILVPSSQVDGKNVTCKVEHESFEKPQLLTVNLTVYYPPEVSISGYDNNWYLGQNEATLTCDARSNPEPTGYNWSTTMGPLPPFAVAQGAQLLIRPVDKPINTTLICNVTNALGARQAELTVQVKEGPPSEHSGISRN
# Chain of TRAIL-R2-Fc double mutant L110A/L114A (human) (O14763 other isoform, or with tags, fused parts or gaps L110A L114A L110A L114A limits assumed): as the sequence (O14763 other isoform, or with tags, fused parts or gaps M152A R154A K155A M152A R154A K155A limits assumed) above, with L53A, L57A, A95M, A97R, A98K counted along it
# Chain of TRAIL-R2-Fc double mutant E78A/D109A (human) (O14763 other isoform, or with tags, fused parts or gaps E78A D109A E78A D109A limits assumed): as the sequence (O14763 other isoform, or with tags, fused parts or gaps M152A R154A K155A M152A R154A K155A limits assumed) above, with E21A, D52A, A95M, A97R, A98K counted along it
# Chain of TRAIL-R1-Fc (human TRAIL-R1/DR4 ectodomain Fc fusion) (human) (O00220 24-239): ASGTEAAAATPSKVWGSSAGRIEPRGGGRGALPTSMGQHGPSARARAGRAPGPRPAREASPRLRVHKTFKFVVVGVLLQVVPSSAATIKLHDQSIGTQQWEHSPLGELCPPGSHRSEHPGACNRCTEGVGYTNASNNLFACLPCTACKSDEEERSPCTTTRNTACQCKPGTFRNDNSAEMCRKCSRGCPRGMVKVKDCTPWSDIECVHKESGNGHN
# Chain of TRAIL-R2-Fc mutant M152A (human) (O14763 other isoform, or with tags, fused parts or gaps M152A M152A limits assumed): as the sequence (O14763 other isoform, or with tags, fused parts or gaps M152A R154A K155A M152A R154A K155A limits assumed) above, with A97R, A98K counted along it
# Chain of TRAIL-R2-Fc mutant D148A (human) (O14763 other isoform, or with tags, fused parts or gaps D148A D148A limits assumed): as the sequence (O14763 other isoform, or with tags, fused parts or gaps M152A R154A K155A M152A R154A K155A limits assumed) above, with D91A, A95M, A97R, A98K counted along it
# Chain of TRAIL-R2-Fc mutant K155A (human) (O14763 other isoform, or with tags, fused parts or gaps K155A K155A limits assumed): as the sequence (O14763 other isoform, or with tags, fused parts or gaps M152A R154A K155A M152A R154A K155A limits assumed) above, with A95M, A97R counted along it
# Chain of TRAIL-R2-Fc mutant F112A (human) (O14763 other isoform, or with tags, fused parts or gaps F112A F112A limits assumed): as the sequence (O14763 other isoform, or with tags, fused parts or gaps M152A R154A K155A M152A R154A K155A limits assumed) above, with F55A, A95M, A97R, A98K counted along it
# Chain of TRAIL-R2-Fc mutant V167A (human) (O14763 other isoform, or with tags, fused parts or gaps V167A V167A limits assumed): as the sequence (O14763 other isoform, or with tags, fused parts or gaps M152A R154A K155A M152A R154A K155A limits assumed) above, with A95M, A97R, A98K, V110A counted along it
# Chain of TRAIL-R2-Fc mutant P150A (human) (O14763 other isoform, or with tags, fused parts or gaps P150A P150A limits assumed): as the sequence (O14763 other isoform, or with tags, fused parts or gaps M152A R154A K155A M152A R154A K155A limits assumed) above, with P93A, A95M, A97R, A98K counted along it
# T1 sequence (Q9QZM4 other isoform, or with tags, fused parts or gaps limits assumed): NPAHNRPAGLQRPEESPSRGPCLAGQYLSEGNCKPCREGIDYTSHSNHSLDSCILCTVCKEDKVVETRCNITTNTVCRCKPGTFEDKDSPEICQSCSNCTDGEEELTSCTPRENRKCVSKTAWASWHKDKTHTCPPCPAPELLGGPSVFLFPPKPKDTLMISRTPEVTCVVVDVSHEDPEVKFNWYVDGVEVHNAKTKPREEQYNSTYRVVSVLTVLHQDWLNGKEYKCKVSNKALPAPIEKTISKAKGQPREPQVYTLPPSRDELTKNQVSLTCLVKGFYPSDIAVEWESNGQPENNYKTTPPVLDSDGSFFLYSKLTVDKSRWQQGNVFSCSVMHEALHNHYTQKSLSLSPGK
molecule,measurement,setting,value
UL141 ectodomain (HCMV FIX strain) with C-terminal poly-histidine tag (ligand),x-fold reduction in binding compared to wild type,[1],7.2 fold
same,x-fold reduction in binding compared to wild type,[2],9.2 fold
same,x-fold reduction in binding compared to wild type,[3],106 fold
same,x-fold reduction in binding compared to wild type,[4],2.6 fold
same,fold decrease in binding affinity against wild-type,[5],7 fold
same,koff,[6],0.000346 s⁻¹
same,kon,[6],176000 M⁻¹ s⁻¹
same,koff,[7],0.014 s⁻¹
same,kon,[7],6020 M⁻¹ s⁻¹
same,koff,[8],7.21e-05 s⁻¹
same,kon,[8],12100 M⁻¹ s⁻¹
same,Kd,[9],2 nM
same,Kd,[10],6 nM
same,Kd,[11],1.97 nM
same,Kd,[12],2330 nM
same,Kd,[13],5.96 nM
same,Kd,[14],6 nM and 5.95 nM
same,koff,[14],7.21e-05 s⁻¹
same,kon,[14],12100 M⁻¹ s⁻¹
same,Kd,[15],2.27 nM
same,Kd,[16],60.4 nM
same,fold lower binding than wild-type,[16],10 fold
same,koff,[16],0.00151 s⁻¹
same,kon,[16],25000 M⁻¹ s⁻¹
same,Kd,[17],42.7 nM
same,fold lower binding than wild-type,[17],10 fold
same,koff,[17],0.00064 s⁻¹
same,kon,[17],15000 M⁻¹ s⁻¹
same,Kd,[18],55.3 nM
same,fold lower binding than wild-type,[18],10 fold
same,koff,[18],0.0013 s⁻¹
same,kon,[18],23500 M⁻¹ s⁻¹
same,Kd,[19],630 nM
same,fold lower binding than wild-type,[19],100 fold
same,koff,[19],0.00566 s⁻¹
same,kon,[19],8980 M⁻¹ s⁻¹
same,Kd,[20],7.74 nM
same,koff,[20],0.00038 s⁻¹
same,kon,[20],49100 M⁻¹ s⁻¹
same,Kd,[21],7.49 nM
same,koff,[21],0.000382 s⁻¹
same,kon,[21],51000 M⁻¹ s⁻¹
same,Kd,[22],8.32 nM
same,koff,[22],0.000391 s⁻¹
same,kon,[22],47000 M⁻¹ s⁻¹
same,Kd,[23],6.26 nM
same,koff,[23],0.000243 s⁻¹
same,kon,[23],38800 M⁻¹ s⁻¹
same,Kd,[24],15.5 nM
same,fold lower binding than wild-type,[24],2.5 fold
same,koff,[24],0.00048 s⁻¹
same,kon,[24],31000 M⁻¹ s⁻¹
same,Kd,[25],7.39 nM
same,koff,[25],0.00027 s⁻¹
same,kon,[25],36500 M⁻¹ s⁻¹
same,Kd,[26],2300 nM
pre-formed UL141-TRAIL-R2 protein complex (from UniProt O14763 58-184),Kd,[27],2.19 nM
same,koff,[28],0.000333 s⁻¹
same,kon,[28],152000 M⁻¹ s⁻¹
same,Kd,[29],2 nM
B1,binding result,[30],no binding
same,koff,[31],0.00564 s⁻¹
same,kon,[31],264000 M⁻¹ s⁻¹
same,Kd,[32],21.4 nM
same,Kd,[33],19.8 nM
same,Kd,[34],20 nM
